Assay: soluble on expression in E. coli; label from the status in PepcDB or PDB records

For “VPQQSATKLVQQWQPLLQRWGELAGVEIKFATARDIPTFEARLMAGEYDIAYMNPYHFTLVNQTPGYTALARAKNKRITGIIVARKGQSVTLDDLQEETIAFPAPRAFAASIITQSELEQKGIKFTPKYVGSHD”, which “soluble on expression in E. coli” value is on record?
Its value is “not soluble”.

Which “soluble on expression in E. coli” value does the source give for “VPSPDDTEVTVARLTSMSSAEEPLTAGRDGLLSLLRNGQLPSRGAKAPQRERYQRIVAAAMELASEGGYDAVQMRAIADRAGVALGTVYRYFPSKNHMLVMGLLMVFEGMRSRFEDVAIPGDTPSERILFVLRKNTEVLEKDRPRYEALVRAFMFADASASAELDAFGALMTEMFAKTIGVEQISDDQLNAIRVIGDVWMSSLVSWVAGRISVDEVMAHLGLAVRLVFRRLGG” here?
Its value is “not soluble”.

Which “soluble on expression in E. coli” value does the source give for “VPWEDVFKSFDPNPLAAGTIAQVHRATLETGDRVVVKVQRPTARADIEQDLALFEMFAEKVGKRPALNQVINMEDVFKHLSTSLHRELDFRQEANNIERMRTVLADYDRLAVPSIHWDLS” here?
The value was “not soluble”.

Which “soluble on expression in E. coli” value does the source give for “VQLLEQSGAELVKPGASVKLSCTASGFNIEDSYIHWVKQRPEQGLEWIGRIDPEDGETKYAPKFQGKATITADTSSNTAYLHLRRLTSEDTAIYYCGRGAYYIKEDFWGQGTTLTVSSASTKGPSVFPLAPSSKAGGTAALGCLVKDYFPEPVTVSWNSGALTSGVHTFPAVLQSSGLYSLSSVVTVPSSSLGTQTYICNVNHKPSNTKVDKKVEPA” here?
Its value is “soluble”.

Which “soluble on expression in E. coli” value does the source give for “VRFVSELCALHGTDPVPMALIMEPVSKWSPSQVVDWMKGLDDCLQQYIKNFEREKISGDQLLRITHQELEDLGVSRIGHQELILEAVDLLCALNYGLETENLKTLSHKLNASAKNLQNFITGRRRSGHYDGRTSRKLPNDFLTSVVDLIGAAKSLLAWLDRSPFAAVTDYSVTRNNVIQLCLELTTIVQQDCTVYETENKILHVCKTLSGVCDHIISLSSDPLVSQSAHLEVIQLANIKPSEGLGMYIKSTYDGLHVITGTTENSPADRCKKIHAGDEVIQVNHQTVVGWQLKNLVNALREDPSGVILTLKKRPQSMLTSAPALLKNMRWKPLALQPLIPRSPTSSVATPSSTISTPTKRDSSALQDLYIPPPPAEPYIPRDEKGNLPCEDLRGHMVGKPVHKGSESPNSFLDQEYRKRFNIVEEDTVLYCYEYEKGRSSSQGRRESTPTYGKLRPISMPVEYNWVGDYEDPNKMKRDSRRENSLLRYMSNEKIAQEEYMFQRNSKKDTGKKSKKKGDKSNSPTHYSLLPSLQMDALRQDIMGTPVPETTLYHTFQQSSLQHKSKKKNKGPIAGKSKRRISCKDLGRGDCEGWLWKKKDAKSYFSQKWKKYWFVLKDASLYWYINEEDEKAEGFISLPEFKIDRASECRKKYAFKACHPKIKSFYFAAEHLDDMNRWLNRINMLTAGYAERERIKQEQDYWSESDKEEADTPSTPKQDSPPPPYDTYPRPPSMSCASPYVEAKHSRLSSTETSQSQSSHEEFRQEVTGSSAVSPIRKTASQRRSWQDLIETPLTSSGLHYLQTLPLEDSVFSDSAAISPEHRRQSTLPTQKCHLQDHYGPYPLAESERMQVLNGNGGKPRSFTLPRDSGFNHCCLMLQLVPVTHRMTCNPQRWRKRRRRRRRKGRQQGKT” here?
The value was “soluble”.

Which “soluble on expression in E. coli” value does the source give for “VRLSNPDILLNIHVSHEEVTLSLDSSGDSLHKRGYRVAETTAPLNEVLAAGILLKAGWDGSTDLIDPMCGSGTFLIEAALIACNIAPGIYRRGFAFQRWADFDLDLYDELFHDDSAERVFDHIIYGSDILPQAVAAARSNVERAGLGRYISLSVLPMQQRPKPESKAMLVMNPPYGERIKVEDMQQLYTMIGERLKHNYAGCSAWILAFKPEHFNHIGLRQSHREKLMNGALECELRGYELFEGRR” here?
Its value is “not soluble”.

With “VRPLNCIVAVSQNMGIGKNGDLPWPPLRNEFKYFQRMTTTSSVEGKQNLVIMGRKTWFSIPEKNRPLKDRINIVLSRELKEPPRGAHFLAKSLDDALRLIEQPELASKVDMVWIVGGSSVYQEAMNQPGHLRLFVTRIMQEFESDTFFPEIDLGKYKLLPEYPGVLSEVQEEKGIKYKFEVYEKKD” as the sequence, how does the “soluble on expression in E. coli” value read?
Its value is “soluble”.

For “VSAPDSPALAGMSIGAVLDLLRPDFPDVTISKIRFLEAEGLVTPRRASSGYRRFTAYDCARLRFILTAQRDHYLPLKVIRAQLDAQPDGELPPFGSPYVLPRLVPVAGDSAGGVGSDTASVSLTGIRLSREDLLERSEVADELLTALLKAGVITTGPGGFFDEHAVVILQCARALAEYGVEPRHLRAFRSAADRQSDLIAQIAGPLVKAGKAGARDRADDLAREVAALAITLHTSLIKSAVRDVLHR”, which “soluble on expression in E. coli” value is on record?
Its value is “soluble”.

With “VSDFKYGALLNITTLSNKVLSLGYEKPFIDSGQARTRLNGPLAEFFLYKTDGIFKTQEQIDNYVTPDGEPIMISGKRPQLGDVKYIDTDNNGQITADDRQFCGSPWAKMQMSLVLNAEWKDFDFSMMWNGQFGNKIYNVSKWQGRLFSDNSNYLRFKKGEEPYQVNQNSDTPRIIYGDQRNSWDADRFLENGSYFRLKNISIGYNLKKEWLKNLGIDKLRLYATGSNLLTFTGYSGLDPDFINTNIWNSGTDSFSYPNTRSVMFGLDLTF” as the sequence, how does the “soluble on expression in E. coli” value read?
The value was “not soluble”.

With “VTSGTALPSADDLLVLLAVGRTGRFNTAADDLGVNHTTISRRIASLEKSLGGRVLVKAAGGWELTDLGRQALTAAERVEAAVHGLVAEPGRADHLKGVVRVSATDGFSAYIAAPAGALIRSRHPEVSVEIVAITRRASQHRSGLDIEIVVGKPQVHRAEALWLADYTLGLYGAKSYLSAHGTPRQVGDLADHSLVYFIDSMLQVDELDLARRLTVSMRESVTSTNVFVHVEATRASAGIGLLPCFMADRHDDLVRVLPGQVEATLAYWLVARPESLRRPEVAAVVGAIRETVESQRDALAGQ” as the sequence, how does the “soluble on expression in E. coli” value read?
Its value is “not soluble”.

With “VVDFGALPPEINSARMYAGPGSASLVAAAKMWDSVASDLFSAASAFQSVVWGLTTGSWIGSSAGLMVAAASPYVAWMSVTAGQAELTAAQVRVAAAAYETAYGLTVPPPVIAENRAELMILIATNLLGQNTPAIAVNEAEYGEMWAQDAAAMFGYAATAATATEALLPFEDAPLITNPGGLLEQAVAVEEAIDTAAANQLMNNVPQALQQLAQPTKSIWPFDQLSELWKAISPHLSPLSNIVSMLNNHVSMTNSGVSMASTLHSMLKGFAPAAAQAVETAAQNGVQAMSSLGSQLGSSLGSSGLGAGVAANLGRAASVGSLSVPQAWAAANQAVTPAARALPLTSLTSAAQTAPGHMLGGLPLGQLTNSGGGFGGVSNALRMPPRAYVMPRVPAAG” as the sequence, how does the “soluble on expression in E. coli” value read?
The value was “soluble”.

With “VVGNMTPDFLGSVATTLTWKDLSLNVGLDMRFGGLVASYCNLYGTQAGWTESSLQYRDPEHGGMTWTSQYADSKGIQYTDGMIPEGVFKEGTIATLVDGTKMDVSGLSYAQLVQEGKLEPTHAGSWYGNNYAWGAQTIDDIWVHKLSYIALRNITINYRLPNSISHKLGAKGLNLSFSARNLGYLYNSLPNNLNPESVRSNSASEFRIRGFEPYTASYIFTINANF” as the sequence, how does the “soluble on expression in E. coli” value read?
The value was “not soluble”.

Which “soluble on expression in E. coli” value does the source give for “VVTRQLGRAPRGVLAIAYRCPNGEPGVVKTAPRLPDGTPFPTLYYLTHPVLTAAASRLETTGLMREMNRRLGQDAELAAAYRRAHESYLSERDALEPLGTTVSAGGMPDRVKCLHVLIAHSLAKGPGLNPFGDEALALLAAEPRTAATLVAGQWR” here?
Its value is “soluble”.

For “VYWLNWTDRTRKFTIYNDIIERSLLTLKMMSFYNGAVLASLTTSLPEAVGEVRNWDYRFCWLRDASMSIETLFKIGHADATRKFMKFIQSTFVAEHDTYQIMYGIRGERKLTEVILDHLSGYKNSQPVRIGNDAYHQRQNDSFGYLMDLIYQYYRLMPGTLDEIEDMWEMVKSIMTTVMEDWRKPDKGIWEIRGEGQHFVSSKVMCWVALDRGARIARILNKYENSRRWEEEADAIKADVMRNGWKEEIQSFSQAYGNLDLDSSLLLMEPYGFIDADDIRYHKTVKAVKQSLLHKGLMYRYNTHDDFGCPSSAFTICTFWLIRALYVIGEKDEARCLFDEILQYSNHLGLFSEDIDFETKEQLGNFPQAYSHLALVNTAVLFAE”, which “soluble on expression in E. coli” value is on record?
Its value is “not soluble”.

With “WLEPYLAGVTSVKGLQSVSVLQALKHYLGWELSQQLDEWLPTHHLLPTGNHKKIRYQLGMEPTLSVRMQEVFGEQSSPRVAKGTRAVVMELLSPAQRPLQVTRDLASFWAGAYKEVQKEMKGRYPKHVWPDDPANHVATSKTKRQLNA” as the sequence, how does the “soluble on expression in E. coli” value read?
The value was “not soluble”.

Reference: the DeepSol protein solubility set
